One block for each binder: values may come before it.
Key:
hRpn13 Pru (1–150) = hRpn13 Pru (1–150) (human, UniProt Q16186 1-150, 13C-labelled); test: NMR structure
monoubiquitin = monoubiquitin (UniProt P0CG48 1-76); test: NMR 13C-half-filtered NOESY

- binding result (hRpn13 Pru (1–150)): binds
Binder: QEPEPPEPFEYIDD (peptide, UniProt Q99460 940-953, looked up) [hRpn2 (940–953)]

B1: hRpn2-bound hRpn13 (hRpn13 Pru:hRpn2 (940–953) complex) (complex, human)
chain 1: MTTSGALFPSLVPGSRGASNKYLVEFRAGKMSLKGTTVTPDKRKGLVYIQQTDDSLIHFCWKDRTSGNVEDDLIIFPDDCEFKRVPQCPSGRVYVLKFKAGSKRLFFWMQEPKTDQDEEHCRKVNEYLNNPPMPGALGASGSSGHELSAL
chain 2: QEPEPPEPFEYIDD
modifications: 13C-labelled
- binding result (monoubiquitin): binds

Reference: publication PMC7205571 (Structure (London, England : 1993), 2020)
